According to article PMC12132311 (bioRxiv, 2025):
Values joined by “and” are separate entries in the source; they are usually repeats but may differ in a detail not shown here. Identical values can stand only once. No end group written: not given here. *: point of attachment. FITC = O=C1OC2(c3ccc(O)cc3Oc3cc(O)ccc32)c2ccc(NC(=S)*)cc21; 5FAM = O=C1OC2(c3ccc(O)cc3Oc3cc(O)ccc32)c2ccc(C(=O)*)cc21; Ahx = NCCCCCC(=O)O

T1: Carboxyl terminus of Hsc70-interacting protein (CHIP/STUB1), human, WT, full length (human), Q9UNE7
T1 chain: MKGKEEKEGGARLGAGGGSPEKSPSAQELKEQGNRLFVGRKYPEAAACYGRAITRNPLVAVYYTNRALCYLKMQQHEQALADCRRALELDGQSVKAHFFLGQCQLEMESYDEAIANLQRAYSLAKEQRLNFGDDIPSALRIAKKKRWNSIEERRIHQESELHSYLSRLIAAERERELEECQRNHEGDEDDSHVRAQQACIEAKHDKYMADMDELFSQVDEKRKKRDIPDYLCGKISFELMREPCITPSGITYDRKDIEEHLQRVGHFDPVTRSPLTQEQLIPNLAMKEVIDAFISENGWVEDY

T2: FAM-labeled Hsp70 C-terminal peptide (5FAM-Ahx-SSGPTIEEVD)
T2 peptide: {5FAM-Ahx}-SSGPTIEEVD

T3: CHIP-optimized peptide CHIPopt (FITC-Ahx-LWWPD)
T3 peptide: {FITC-Ahx}-LWWPD

B1: Carboxyl terminus of Hsc70-interacting protein (CHIP/STUB1), human, WT, full length (enzyme)
chain: T1 chain
B2: Fab H1 (CHIP-targeting fragment antigen-binding antibody) (Fab, V domains shown)
VH: VQLVQSGSEVKKPGASVKVSCKASGYTFTNYGISWVRQAPGQGLEWMGWISAYNGNTNYAQNFQGRVTMTTDTSTKTAYMELRSLRSDDTAVYFCARSGYSGYDNNLGAFDIWGQGTMVTVSS
VL: SVVTQPPSVSAAPGQKVTISCSGTSSNIGNSYVTWYQQLPGAAPKLLIYDNNKRPSGIPDRFSGSKSGTSATLGITGLQTGDEADYYCATWDSSLTAGRVFGGGTRLTVL
B3: Fab 2D2 (CHIP-targeting fragment antigen-binding antibody) (Fab, V domains shown)
VH: QVQLQQSGPGLMKGGQTLSLTCAISGDSVSSNSAAWNWIRQSPSRGLEWLGRTYYRSKWYNEYAVSVKSRITINPDTSKNQFSLQLNSVTPEDTAVYYCARAVAASFDYWGQGTLVTVSS
VL: ETTLTQSPGTLSLSPGERATLSCRASQSVSSTFLAWYQQKPGQAPRLLIYGASRRATGIPDRFSGSGSGTDFTLTISRLEPEDFAVYYCQRYGATYTFGQGTKLEIK

What was measured:
[1] = target: T1, Carboxyl terminus of Hsc70-interacting …; assay: cryo-EM structure; conditions: remark: other sources report otherwise
[2] = target: T2, FAM-labeled Hsp70 C-terminal peptide …; assay: fluorescence polarisation
[3] = target: T3, CHIP-optimized peptide CHIPopt …; assay: fluorescence polarisation
[4] = target: T2, FAM-labeled Hsp70 C-terminal peptide …; assay: fluorescence polarisation
[5] = target: T3, CHIP-optimized peptide CHIPopt …; assay: fluorescence polarisation
[6] = target: Carboxyl terminus of Hsc70-interacting protein (CHIP/STUB1), human, WT, full length (human, UniProt Q9UNE7); assay: cryo-EM structure
Biotinylated CHIP = Biotinylated CHIP (Homo sapiens, UniProt Q9UNE7, biotin (site and way of biotinylation not stated)); assay: BLI

Row | Binder | stoichiometry N [1] | apparent Kd with Fab H1 present [2] [nM] | apparent Kd with Fab H1 present [3] [nM] | apparent Kd with Fab 2D2 present [4] [nM] | apparent Kd with Fab 2D2 present [5] [nM] | stoichiometry N [6] | Kd (Biotinylated CHIP) [nM]
1 | B1 | 2 | 140 | 0.01 | 260 | 0.016 |  | 
2 | B2 |  |  |  |  |  | 1 Fab per CHIP dimer (printed as 2:1 CHIP:Fab) and 2 Fab per CHIP dimer (printed as 2:2 CHIP:Fab) | 1100
3 | B3 |  |  |  |  |  | 1 Fab per CHIP dimer (printed as 2:1 CHIP:Fab) | 40
